This assay deals with macrophage mannose receptor on J774E murine monocyte/macrophage cells (murine) (UniProt Q61830). Description: cell-based or functional assay.

As for “Cerezyme (from UniProt P04062 40-536) (enzyme)”, the Vmax for uptake in the J774E macrophage cell line is 0.52.

These data come from patent US20030036181A1.
